Patent US7033832

Target: chicken N-cadherin (expressed from pMiwcN vector on LN2 mouse L cell transfectants) (chicken) (UniProt P10288)
Assay: flow cytometry of LN2 cells stained with NCD2 and FITC secondary antibody

Sequence of UniProt P10288 (P10288 165-912): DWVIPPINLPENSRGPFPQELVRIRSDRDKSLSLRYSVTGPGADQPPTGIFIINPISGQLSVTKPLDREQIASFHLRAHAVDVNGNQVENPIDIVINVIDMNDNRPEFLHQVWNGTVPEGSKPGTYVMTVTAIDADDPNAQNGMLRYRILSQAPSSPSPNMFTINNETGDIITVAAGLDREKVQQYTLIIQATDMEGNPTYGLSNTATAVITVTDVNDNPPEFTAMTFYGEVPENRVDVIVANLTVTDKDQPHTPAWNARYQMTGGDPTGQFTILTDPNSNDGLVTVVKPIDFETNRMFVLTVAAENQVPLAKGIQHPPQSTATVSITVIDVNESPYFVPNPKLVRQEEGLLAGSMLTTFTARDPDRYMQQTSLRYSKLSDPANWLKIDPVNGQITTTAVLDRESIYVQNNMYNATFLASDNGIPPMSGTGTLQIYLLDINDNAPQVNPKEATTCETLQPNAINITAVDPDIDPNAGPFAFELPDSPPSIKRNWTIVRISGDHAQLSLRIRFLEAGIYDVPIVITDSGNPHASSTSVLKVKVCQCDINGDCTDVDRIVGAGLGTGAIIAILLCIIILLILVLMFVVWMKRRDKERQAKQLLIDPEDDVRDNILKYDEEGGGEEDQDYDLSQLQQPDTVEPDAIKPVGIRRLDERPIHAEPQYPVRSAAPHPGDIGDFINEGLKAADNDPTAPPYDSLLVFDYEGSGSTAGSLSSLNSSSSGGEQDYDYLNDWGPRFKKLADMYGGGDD

A mean channel fluorescence (mcf) of 26.5 mcf was found for “anti-chicken-N-Cadherin antibody (NCD2, Zymed, San Francisco, Calif.)” in this work.
